Read-outs that look alike come from different tables or passages of the source.
How the values were obtained:
[1] = tested on: T1, SbL (Steccherinum bourdotii laccase); test: spectrophotometric oxidation, […] nm, non-linear fit; type: biochemical; details: 0.1 M McIlvaine buffer pH 4.5, 25 °C; read-out: Steccherinaceae group / SbL
T1 construct: peptides most similar to S. murashkinskyi laccase 2 / A. faginea laccase A

[2] = tested on: T2, JnL (Junghuhnia nitida laccase); test: spectrophotometric oxidation, […] nm, non-linear fit; type: biochemical; details: 0.1 M McIlvaine buffer pH 4.5, 25 °C; read-out: Steccherinaceae group / JnL
T2 construct: peptides most similar to S. murashkinskyi laccase 2 / A. faginea laccase A

[3] = tested on: T2, JnL (Junghuhnia nitida laccase); test: spectrophotometric oxidation, […] nm, non-linear fit; type: biochemical; details: 0.1 M McIlvaine buffer pH 4.5, 25 °C; read-out: Steccherinaceae group / JnL; remark: listed apart in the source
[4] = tested on: T1, SbL (Steccherinum bourdotii laccase); test: spectrophotometric oxidation, […] nm, non-linear fit; type: biochemical; details: 0.1 M McIlvaine buffer pH 4.5, 25 °C; read-out: Steccherinaceae group / SbL; remark: listed apart in the source
[5] = tested on: T1, SbL (Steccherinum bourdotii laccase); test: spectrophotometric oxidation, […] nm, non-linear fit; type: biochemical; details: 0.1 M McIlvaine buffer pH 4.5, 25 °C; read-out: Steccherinaceae group / SbL; remark: listed apart in the source
[6] = tested on: T2, JnL (Junghuhnia nitida laccase); test: spectrophotometric oxidation, […] nm, non-linear fit; type: biochemical; details: 0.1 M McIlvaine buffer pH 4.5, 25 °C; read-out: Steccherinaceae group / JnL; remark: listed apart in the source
[7] = tested on: JnL (Junghuhnia nitida laccase); details: read-out: Steccherinaceae group / JnL; 0.1 M McIlvaine buffer pH 4.5, 25 °C
[8] = tested on: SbL (Steccherinum bourdotii laccase); details: read-out: Steccherinaceae group / JnL; 0.1 M McIlvaine buffer pH 4.5, 25 °C
[9] = tested on: T1, SbL (Steccherinum bourdotii laccase); test: oxygen consumption, Clark-type electrode, non-linear fit; type: biochemical; details: 0.1 M citrate-phosphate buffer pH 4.5, 25 °C; read-out: Steccherinaceae group / SbL
Text: oxygen consumption, Clark-type electrode, non-linear fit on SbL (Steccherinum bourdotii laccase)

[10] = tested on: T2, JnL (Junghuhnia nitida laccase); test: as above; type: biochemical; details: 0.1 M citrate-phosphate buffer pH 4.5, 25 °C; read-out: Steccherinaceae group / JnL
Text: oxygen consumption, Clark-type electrode, non-linear fit on JnL (Junghuhnia nitida laccase)

[11] = tested on: T1, SbL (Steccherinum bourdotii laccase); test: spectrophotometric oxidation, […] nm, non-linear fit; type: biochemical; details: 0.1 M McIlvaine buffer pH 4.5, 25 °C; read-out: Steccherinaceae group / SbL; remark: listed apart in the source
[12] = tested on: JnL (Junghuhnia nitida laccase); details: read-out: Steccherinaceae group / JnL; 0.1 M McIlvaine buffer pH 4.5, 25 °C; remark: listed apart in the source
[13] = substrate: COc1cc([C@@H]2OC[C@@H]3[C@H]2CO[C@H]3c2ccc(O)c(OC)c2)ccc1O; test: oxygen consumption, Clark-type electrode, non-linear fit; type: biochemical, Trametes hirsuta; details: 0.1 M citrate-phosphate buffer pH 4.5, 25 °C
Text: oxygen consumption, Clark-type electrode, non-linear fit on ThL (Trametes hirsuta laccase)

[14] = substrate: Oc1ccccc1O; test: purified protein, by the assay type; parameters: Laccase substrate oxidation kinetics, spectrophotometric initial rates, 25 °C, McIlvaine buffer pH 4.5; details: 25.0 °C
Procedure: (§1) Kinetic constants were measured spectrophotometrically using a PerkinElmer Lambda 35 spectrophotometer (USA) at 25°C. […] 10 μl of enzyme solution at a concentration of 1 mg·ml^-1 (50 mM potassium phosphate buffer pH 6.5) was added to 2 ml substrate solution in 0.1 M McIlvaine buffer, pH 4.5. The reaction rate was measured by monitoring of the absorbance change during 3 min. […] It is interesting that syringyl-type substrates like 2,6-DMP, sinapic acid and syringaldazine were better in terms of Km and kcat/Km values for JnL and SbL compared to CcL and ThL.

[15] = substrate: COc1cc(C=NN=Cc2cc(OC)c(O)c(OC)c2)cc(OC)c1O; test: purified protein, by the assay type; parameters: Laccase substrate oxidation kinetics, spectrophotometric initial rates, 25 °C, McIlvaine buffer pH 4.5; details: 25.0 °C
Procedure: as §1

[16] = substrate: O=C(O)c1cc(O)c(O)c(O)c1; test: purified protein, by the assay type; parameters: Laccase substrate oxidation kinetics, spectrophotometric initial rates, 25 °C, McIlvaine buffer pH 4.5; details: 25.0 °C
Procedure: as §1

[17] = substrate: COc1cc(/C=C/C(=O)O)ccc1O; test: purified protein, by the assay type; parameters: Laccase substrate oxidation kinetics, spectrophotometric initial rates, 25 °C, McIlvaine buffer pH 4.5; details: 25.0 °C
Procedure: as §1

[18] = substrate: COc1ccccc1O; test: purified protein, by the assay type; parameters: Laccase substrate oxidation kinetics, spectrophotometric initial rates, 25 °C, McIlvaine buffer pH 4.5; details: 25.0 °C
Procedure: as §1

[19] = substrate: COc1cccc(OC)c1O; test: purified protein; type: biochemical, Trametes hirsuta; details: 0.1 M McIlvaine buffer pH 4.5, 25 °C
[20] = substrate: COc1cc(/C=C/C(=O)O)cc(OC)c1O; test: purified protein; type: biochemical, Trametes hirsuta; details: 0.1 M McIlvaine buffer pH 4.5, 25 °C
[21] = substrate: COc1cc(C=NN=Cc2cc(OC)c(O)c(OC)c2)cc(OC)c1O; test: purified protein; type: biochemical, Cerrena caperata; details: 0.1 M McIlvaine buffer pH 4.5, 25 °C
[22] = substrate: COc1cc(/C=C/C(=O)O)cc(OC)c1O; test: purified protein; type: biochemical, Cerrena caperata; details: 0.1 M McIlvaine buffer pH 4.5, 25 °C
[23] = substrate: COc1cc(/C=C/C(=O)O)ccc1O; test: purified protein; details: 0.1 M McIlvaine buffer pH 4.5, 25 °C
[24] = substrate: COc1cccc(OC)c1O; test: purified protein, by the assay type; parameters: Laccase substrate oxidation kinetics, spectrophotometric initial rates, 25 °C, McIlvaine buffer pH 4.5; details: 25.0 °C
Procedure: as §1

Q: How did the Km [1] turn out when `COc1cc(C=NN=Cc2cc(OC)c(O)c(OC)c2)cc(OC)c1O` [Syringaldazine] was run?
A: Its Km is 1 ± 0.3 µM.

Q: And the Km [2]?
A: The Km was 2 ± 0.4 µM.

Q: What does the source list for `COc1cccc(OC)c1O` [2,6-DMP]?
A: Km [3]: 7 ± 1 µM; Km [4]: 8 ± 1 µM

Q: With `COc1cc(/C=C/C(=O)O)cc(OC)c1O` [Sinapic acid] as the molecule, how does the Km [5] read?
A: The Km was 8 ± 1 µM.

Q: And the Km [6]?
A: The Km was 9 ± 1 µM.

Q: `CCn1c(=NN=c2sc3cc(S(=O)(=O)O)ccc3n2CC)sc2cc(S(=O)(=O)O)ccc21` [ABTS] was tested. Which Km [7] did it give?
A: The Km was 17 ± 2 µM.

Q: And the Km [8]?
A: The Km was 17 ± 2 µM.

Q: For `COc1cc([C@@H]2OC[C@@H]3[C@H]2CO[C@H]3c2ccc(O)c(OC)c2)ccc1O` [Pinoresinol], which Km [9] is on record?
A: Its Km is 149 ± 22 µM.

Q: And the Km [10]?
A: Its Km is 89 ± 12 µM.

Q: Which Km [11] does the source give for `COc1cc(/C=C/C(=O)O)ccc1O` [Ferulic acid] here?
A: Its Km is 19 ± 2 µM.

Q: And the Km [12]?
A: Its Km is 19 ± 1 µM.

B1: ThL (Trametes hirsuta laccase) (Trametes hirsuta) (protein)
chain: AVGPVADLTITDAAVSPDGFSRQAVVVNGVTPGPLVAGNIGDRFQLNVIDNLTNHTMLKSTSIHWHGFFQHGTNWADGPAFINQCPISPGHSFLYDFQVPDQAGTFWYHSHLSTQYCDGLRGPFVVYDPNDPHASRYDVDNDDTVITLADWYHTAAKLGPRFPGGADATLINGKGRAPSDSPAELSVIKVTKGKRYRFRLVSLSCNPNHTFSIDGHNLTIIEVDSVNSQPLEVDSIQIFAAQRYSFVLDANQAVDNYWIRANPNFGNVGFDGGINSAILRYDGAPAVEPTTNQTTSVKPLNEVDLHPLVSTPVPGSPSSGGVDKAINMAFNFNGSNFFINGASFVPPTVPVLLQILSGAQTAQDLLPSGSVYVLPSNASIEISFPATAAAPGAPHPFHLHGHTFAVVRSAGSTVYNYDNPIFRDVVSTGTPAAGDNVTIRFDTNNPGPWFLHCHIDFHLEGGFAVVMAEDTPDVKAVNPVPQAWSDLCPTYDALDPNDQ
Q: How did the Km [13] turn out when B1 was run?
A: Its Km is 61 ± 8 µM.

Q: And the kcat [13]?
A: The kcat was 73 ± 3 s⁻¹.

Q: What about the kcat/Km [13] of the same molecule?
A: Its kcat/Km is 1.2e+06 M⁻¹ s⁻¹.

Q: And the Km [14]?
A: The Km was 183 µM.

Q: What about the kcat [14] of the same molecule?
A: Its kcat is 302 ± 27 s⁻¹.

Q: And the kcat/Km [14]?
A: Its kcat/Km is 1.65e+06 M⁻¹ s⁻¹.

Q: And the Km [15]?
A: Its Km is 34 µM.

Q: And the kcat [15]?
A: The kcat was 131 ± 10 s⁻¹.

Q: And the kcat/Km [15]?
A: The kcat/Km was 3.85e+06 M⁻¹ s⁻¹.

Q: And the Km [16]?
A: The Km was 223 µM.

Q: And the kcat [16]?
A: The kcat was 58 ± 3 s⁻¹.

Q: What about the kcat/Km [16] of the same molecule?
A: The kcat/Km was 260000 M⁻¹ s⁻¹.

Q: What about the Km [17] of the same molecule?
A: Its Km is 28 µM.

Q: And the kcat [17]?
A: Its kcat is 270 ± 25 s⁻¹.

Q: And the kcat/Km [17]?
A: The kcat/Km was 9.64e+06 M⁻¹ s⁻¹.

Q: What about the Km [18] of the same molecule?
A: The Km was 173 µM.

Q: What about the kcat [18] of the same molecule?
A: Its kcat is 162 ± 10 s⁻¹.

Q: What about the kcat/Km [18] of the same molecule?
A: The kcat/Km was 976000 M⁻¹ s⁻¹.

Q: What about the Km [19] of the same molecule?
A: Its Km is 24 ± 2 µM.

Q: What about the kcat [19] of the same molecule?
A: Its kcat is 128 ± 11 s⁻¹.

Q: What about the kcat/Km [19] of the same molecule?
A: The kcat/Km was 5.33e+06 M⁻¹ s⁻¹.

Q: What about the Km [20] of the same molecule?
A: The Km was 13 ± 1 µM.

Q: What about the kcat [20] of the same molecule?
A: The kcat was 317 ± 23 s⁻¹.

Q: And the kcat/Km [20]?
A: Its kcat/Km is 2.44e+07 M⁻¹ s⁻¹.

B2: CcL (Coriolopsis caperata laccase) (Cerrena caperata) (protein)
chain: GIGPVTDLTISDGPVSPDGFTRQAILVNNQFPSPLITGNKGDRFQLNVIDNMNNHTMLKSTSIHWHGFFQHGTNWADGPAFVNQCPISPGHSFLYDFQVPDQAGTFWYHSHLSTQYCDGLRGPIVVYDPQDPHKDLYDVDDDSTVITLADWYHLAAKVGPAVPTADATLINGLGRSISTLNADLAVISVTKGKRYRFRLVSLSCDPNHTFSIDGHTMTVIEADSVNLKPQVVDSIQIFAAQRYSFVLNADQDIGNYWIRAMPNSGTRNFDGGVNSAILRYDGADPVEPTTTQTPSSQPLVESALTTLEGTAAPGSPTAGGVDLAINMAFGFAGGRFTINGASFTPPTVPVLLQILSGAQNAQDLLPTGSVYSLPANADIEISLPATAAAPGFPHPFHLHGHTFAVVRSAGSSTYNYANPVYRDVVSTGSPGDNVTIRFRTDNPGPWFLHCHIDFHLEAGFAVVMAEDIPDVAAVNPVPQAWSDLCPTYNALDPNDQ
Q: Which results are given for B2?
A: Km [21]: 5 ± 0.3 µM; kcat [21]: 122 ± 2 s⁻¹; kcat/Km [21]: 2.44e+07 M⁻¹ s⁻¹; Km [22]: 17 ± 2 µM; kcat [22]: 324 ± 31 s⁻¹; kcat/Km [22]: 1.91e+07 M⁻¹ s⁻¹; Km [23]: 20 ± 2 µM; kcat [23]: 234 s⁻¹; kcat/Km [23]: 1.17e+07 M⁻¹ s⁻¹; Km [14]: 815 µM; kcat [14]: 269 ± 6 s⁻¹; kcat/Km [14]: 330000 M⁻¹ s⁻¹; Km [16]: 129 µM; kcat [16]: 55 ± 2 s⁻¹; kcat/Km [16]: 434000 M⁻¹ s⁻¹; Km [24]: 65 µM; kcat [24]: 121 ± 8 s⁻¹; kcat/Km [24]: 1.86e+06 M⁻¹ s⁻¹; Km [18]: 696 µM; kcat [18]: 165 ± 12 s⁻¹; kcat/Km [18]: 237000 M⁻¹ s⁻¹

Reference: publication PMC5983490, “White-rot basidiomycetes Junghuhnia nitida and Steccherinum bourdotii: Oxidative potential and laccase properties in comparison with Trametes hirsuta and Coriolopsis caperata” (PLoS ONE, 2018)
